Drawing on the supplement of paper PMC10567573, this text covers protein stability index for 72 sequences.

± gives the standard deviation.

This series can be described thus: protein stability index of a GFP-peptide fusion (GPS, HEK-293T) (PSI 1-6); higher = more stable.
Setting [1] is: treatment: DMSO, c terminus: a fixed tail appended.
[2] abbreviates: treatment: MLN4924 1 uM, 8 h, c terminus: a fixed tail appended.
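Also: 24-mer peptide tiles fused after GFP, lentivirally expressed, FACS-sorted into six equal bins by GFP/DsRed ratio, decoded by Illumina sequencing, PSI is the read-weighted mean bin number.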

In the case of PEKQKRKPGLRRSPIKKVRKSLAL [MYBL2], the protein stability index runs as follows: under setting [1], 3.97 ± 0.2; under setting [2], 3.83 ± 0.075.

In turn, SKNEVGIFTTPNFDETSSATTIST [KMT2E] displayed a protein stability index under setting [1] of 4.76 ± 0.22 and a protein stability index under setting [2] of 4.79 ± 0.17.

In the case of FNPPPSRPLQVNTADHRIYSYVVS [FAF2], the protein stability index amounted to 2.62 ± 0.29 under setting [1] and 2.92 ± 0.38 under setting [2].

In the case of VREIVKECSNIPLSQPQQGEAMLA [GAN], the protein stability index by setting is: under setting [1], 4.28 ± 0.37; under setting [2], 4.31 ± 0.36.

FSTVWLCWDMQGKRFVAMKVVKSA [SRPK2]: the protein stability index is 2.46 ± 0.63 under setting [1] and 2.46 ± 0.28 under setting [2].

For GKHITVFKTYISPWERAMGVDPQQ [MYOZ1], the protein stability index reads like this: under setting [1], 2.33 ± 0.27; under setting [2], 2.18 ± 0.46.

SASPIKDQPVMAVKTGEDGSNLDD [FANCE]: the protein stability index reads like this: under setting [1], 5.66 ± 0.27; under setting [2], 5.56 ± 0.2.

As to LALEEPVDYKQSVLNVAGEAGGKQ [SLC6A17], the protein stability index stood at 4.91 ± 0.45 under setting [1] and 5.32 ± 0.14 under setting [2].

As for QWLVSQLSAASPDTGHDSDKSDQS [TRAF3IP2], the protein stability index by setting is: under setting [1], 4.66 ± 0.16; under setting [2], 4.73 ± 0.47.

For the sequence VGLAVVNGQLMAVGGFDGTTYLKT [KLHL20], the protein stability index was 2.69 ± 0.54 under setting [1] and 2.23 ± 0.19 under setting [2].

For the sequence ELAEIFRASGEHVTDEEIESLMKD [TNNC2], the protein stability index by setting is: under setting [1], 5 ± 0.41; under setting [2], 5.34 ± 0.33.

Regarding CALEEYVRSQYPNQPTRFGKLLLR [NR2F2], the protein stability index under setting [1] amounted to 2.22 ± 0.17 and the protein stability index under setting [2] stood at 2.33 ± 0.25.

In the case of KMAHVIAACLYLVCRTEGTPHMLL [BRF1], the protein stability index runs as follows: under setting [1], 3.26 ± 0.64; under setting [2], 2.84 ± 0.42.

For the sequence LMSLQNQLKESKSKIDALSSEKLN [CEP70], the protein stability index under setting [1] turned out to be 4.13 ± 0.15 and the protein stability index under setting [2] worked out at 4.05 ± 0.19.

Consider LSWLVWLLLLLLASLLPSARLASP [ADAMTS4], for which the protein stability index runs as follows: under setting [1], 2.99 ± 0.65; under setting [2], 2.5 ± 0.3.

Regarding SHLQWQESRLKRSNPLAREIFRRH [ZSCAN9], the protein stability index is 3.18 ± 0.29 under setting [1] and 3.35 ± 0.27 under setting [2].

On to IIKTEKVDLELFPSPDMECADVPL [ETS1], for which the protein stability index came to 3.99 ± 0.19 under setting [1] and 3.97 ± 0.22 under setting [2].

Consider AEITQIQSHISDMSVILSMDNNRN [KRT71], for which the protein stability index under setting [1] is 3.73 ± 0.16 and the protein stability index under setting [2] turned out to be 3.7 ± 0.14.

For the sequence DHRGRMVKHQCCPGCGYFCTAGNF [EHMT1], the protein stability index worked out at 2.79 ± 0.14 under setting [1] and 3.14 ± 0.17 under setting [2].

Consider VLIRYPNSLDTTSWAWRGPGVLKV [LPCAT4], for which the protein stability index reads like this: under setting [1], 2.77 ± 0.23; under setting [2], 2.69 ± 0.8.

For the sequence ALQRLDLRNNQISHKGAEELALAL [LRRC45], the protein stability index is 3.22 ± 0.24 under setting [1] and 3.05 ± 0.43 under setting [2].

As for APHHHHHHSHSGPEISRIIVDPTT [PLK2], the protein stability index came to 4.22 ± 0.12 under setting [1] and 4.12 ± 0.22 under setting [2].

Regarding ICPSTFACAQLATGAACRLVEAVL [HDAC6], the protein stability index is 2.17 ± 0.32 under setting [1] and 2.14 ± 0.049 under setting [2].

GDKCHSLVGKPKIFIIQACRGNQH [CASP6] registered a protein stability index under setting [1] of 2.19 ± 0.3 and a protein stability index under setting [2] of 2.33 ± 0.66.

With ECGKAFSQNSSLVQHERIHTGDKP [ZNF8], the protein stability index is, setting by setting: under setting [1], 4.49 ± 0.33; under setting [2], 4.48 ± 0.15.

Take DEELHLLIISCRKLFYFKIWAFLD [FBXO39]: the protein stability index by setting is: under setting [1], 2.75 ± 0.52; under setting [2], 2.47 ± 0.69.

On to ALAKKFIDKNTQLTLQVYREQADS [TRIM14], for which the protein stability index reads like this: under setting [1], 2.88 ± 0.31; under setting [2], 3.09 ± 0.49.

Take TTSTLASSLPGHAAKTLPGGAGKG [EHMT1]: the protein stability index amounted to 4.77 ± 0.15 under setting [1] and 5.28 ± 0.16 under setting [2].

Turning to KNALEKYGPLKPLPQTPHLEEDLK [MYBL2], the protein stability index runs as follows: under setting [1], 5.16 ± 0.38; under setting [2], 5.11 ± 0.2.

In turn, SATSKLIHPDEDISLEERRAQLPK [ZNF207] displayed a protein stability index under setting [1] of 4.9 ± 0.28 and a protein stability index under setting [2] of 5.08 ± 0.2.

Consider ELTNGVINAAFMLLFKDLIKLFAC [SNAP91], for which the protein stability index is 3.57 ± 0.5 under setting [1] and 3.14 ± 0.57 under setting [2].

Take DENSSDGRYVKENCKPLKSYMLQD [CLK3]: the protein stability index was determined as 4.57 ± 0.49 under setting [1] and 4.36 ± 0.11 under setting [2].

On to FVLFLFAYLVTVRGNLSILAAVLV [OR3A1], for which the protein stability index reads like this: under setting [1], 3.21 ± 0.52; under setting [2], 3.33 ± 0.34.

In the case of KQLRRQMWWRGCKIKAIMALVAAI [VAMP4], the protein stability index is, setting by setting: under setting [1], 1.91 ± 0.44; under setting [2], 1.92 ± 0.23.

On to LPPNNSYADFERFSKVLEEAAAAE [DAPK3], for which the protein stability index under setting [1] stood at 4.95 ± 0.57 and the protein stability index under setting [2] amounted to 5.07 ± 0.058.

On to QLIEEGYVGEPLVCEVQVHGGSLL [GFOD1], for which the protein stability index was 2.44 ± 0.15 under setting [1] and 2.46 ± 0.39 under setting [2].

Turning to CFIQSSHLIRHQITHTREEQPHGR [ZNF8], the protein stability index is 3.4 ± 0.12 under setting [1] and 3.37 ± 0.23 under setting [2].

In the case of GTGGEEVEALQLSARWLEVLRTYL [FBXO33], the protein stability index runs as follows: under setting [1], 2.41 ± 0.23; under setting [2], 2.32 ± 0.31.

In the case of TLEKCEKVKTMEVTSVSIELEKNF [TRIM39], the protein stability index reads like this: under setting [1], 4.16 ± 0.21; under setting [2], 4.15 ± 0.23.

DSDKLSGLWSRISHLVLPVQPVSS [TOR1AIP2]: the protein stability index by setting is: under setting [1], 2.3 ± 0.24; under setting [2], 2.32 ± 0.21.

DVNDNSPELTITSLFSPVTEDSPL [PCDHGA10]: the protein stability index reads like this: under setting [1], 4.53 ± 0.21; under setting [2], 4.65 ± 0.36.

Turning to WQLYYSKKLLDSWFTSTQEKKHK [JAGN1], the protein stability index (treatment: DMSO, c terminus: native) stood at 2.28 ± 0.49 and the protein stability index (treatment: MLN4924 1 uM, 8 h, c terminus: native) amounted to 2.7 ± 0.29.

As to MIPGFRDLTSEDQIVLLKSSAIEV [VDR], the protein stability index is, setting by setting: under setting [1], 2.33 ± 0.25; under setting [2], 2.43 ± 0.18.

For SAFGNVKLVVHDCPVWDIFDSDWY [RHOBTB3], the protein stability index turned out to be 2.17 ± 0.33 under setting [1] and 2.2 ± 0.12 under setting [2].

Consider PYMSIQPAEDPDDYDDGFSMKHTA [SMARCE1], for which the protein stability index is, setting by setting: under setting [1], 4.88 ± 0.12; under setting [2], 4.78 ± 0.21.

As to EILDYIFSGQIRLNEDTIQDVVQA [GAN], the protein stability index is, setting by setting: under setting [1], 2.67 ± 0.55; under setting [2], 2.23 ± 0.34.

As for HDLIFWRDVKKTGFVFGTTLIMLL [RTN3], the protein stability index is, setting by setting: under setting [1], 2.81 ± 0.37; under setting [2], 2.66 ± 0.49.

As to PGKYFSAAEYHAQRLKAVIVIQTY [IQUB], the protein stability index is, setting by setting: under setting [1], 2.81 ± 0.32; under setting [2], 2.5 ± 0.66.

As to LQARERGEEQVELSTIEELIKDAI [C2CD2L], the protein stability index by setting is: under setting [1], 4.14 ± 0.084; under setting [2], 4.13 ± 0.19.

Consider KILHTAWHPAENIIAIAATNNLYI [PPP2R2C], for which the protein stability index amounted to 2.81 ± 0.54 under setting [1] and 2.93 ± 0.53 under setting [2].

On to KYESVLQLGRALTAHLYSLLQTQH [ARFIP2], for which the protein stability index runs as follows: under setting [1], 3.09 ± 0.24; under setting [2], 2.85 ± 0.092.

For the sequence LKKHGPICQKTATKKRKTFDSSRQ [ZC2HC1A], the protein stability index by setting is: under setting [1], 4.09 ± 0.26; under setting [2], 4.13 ± 0.38.

Sequence AQDLGLKMTDLLSRRLQLGSEENG [PCDHGC5] came in with a protein stability index under setting [1] of 3.94 ± 0.22 and a protein stability index under setting [2] of 3.77 ± 0.19.

GVLRPTVRPGTPPDFILKVVIDKH [CTDNEP1]: the protein stability index stood at 2.73 ± 0.35 under setting [1] and 2.67 ± 0.2 under setting [2].

As to RDYKIQASRTWCFYNTEDIKDWED [PTGFR], the protein stability index is, setting by setting: under setting [1], 3.28 ± 0.36; under setting [2], 3.68 ± 0.49.

MVKPLLHMLLNTTLNIKETDSKEL [ZBED1]: the protein stability index is, setting by setting: under setting [1], 2.13 ± 0.58; under setting [2], 2.24 ± 0.38.

As to IKSVKESLQESVEDSLATVKVVLI [IQUB], the protein stability index was 2.27 ± 0.66 under setting [1] and 2.44 ± 0.32 under setting [2].

Turning to PLTLQVQRPLVSVTVSDASWVSEL [AUP1], the protein stability index reads like this: under setting [1], 2.67 ± 0.15; under setting [2], 2.67 ± 0.25.

For PGSLGPWKITIYDQENFQGKRMEF [CRYBA1], the protein stability index reads like this: under setting [1], 2.25 ± 0.33; under setting [2], 2.18 ± 0.39.

Take KIEDFREEMWTFRGKIHAFRGQIL [CCDC70]: the protein stability index turned out to be 2.41 ± 0.24 under setting [1] and 2.09 ± 0.31 under setting [2].

For the sequence WLLLLTRGLVGVGEASYSTIAPTL [SPNS1], the protein stability index runs as follows: under setting [1], 2.67 ± 0.44; under setting [2], 2.83 ± 0.32.

For the sequence WKSHLKKVQKPLLQAPFLPPKAPP [RHOBTB1], the protein stability index runs as follows: under setting [1], 3.21 ± 0.17; under setting [2], 3.37 ± 0.34.

Turning to IRVVGRGAFGIVHLCLRKADQKLV [NEK8], the protein stability index by setting is: under setting [1], 3.02 ± 0.59; under setting [2], 2.74 ± 0.81.

Consider QGTGYIPTEQVNELVALIPHSDQR [TMEM106C], for which the protein stability index worked out at 4.73 ± 0.18 under setting [1] and 4.67 ± 0.18 under setting [2].

For the sequence SQGLAREQHAGTSEGLHLAGTAGH [FBF1], the protein stability index runs as follows: under setting [1], 4.76 ± 0.16; under setting [2], 4.84 ± 0.36.

On to MAAGNTVIAKPSELTSVTAWMLCK [ALDH8A1], for which the protein stability index by setting is: under setting [1], 2.44 ± 0.1; under setting [2], 2.35 ± 0.23.

Take EAFLAQFSQLEDKFPGQSSFLWQR [TOR1AIP2]: the protein stability index was 2.39 ± 0.56 under setting [1] and 2.5 ± 0.53 under setting [2].

Take SQSHCYRTCFSPASDGSDFTFLRP [PCDHGC5]: the protein stability index turned out to be 2.15 ± 0.26 under setting [1] and 2.09 ± 0.16 under setting [2].

Regarding FTTFFIDCMAALGLAYDRKKVSKA [SCD], the protein stability index is, setting by setting: under setting [1], 2.07 ± 0.32; under setting [2], 2.26 ± 0.53.

As for FQTAIDIFEDRIRGIDIIKWMERY [TRAF3IP2], the protein stability index under setting [1] is 1.9 ± 0.34 and the protein stability index under setting [2] is 2.43 ± 0.66.

GASKAAGVFGFFATIVFATDFYLI [CMTM3] returned a protein stability index under setting [1] of 3.07 ± 0.23 and a protein stability index under setting [2] of 2.88 ± 0.88.

Consider TTSEEAVGGATPDQTTSEETVGGA [HDAC6], for which the protein stability index is, setting by setting: under setting [1], 5.5 ± 0.32; under setting [2], 5.57 ± 0.27.
